Reference: patent US10023615B2, “Efficient transport into white blood cells” (priority 2008, dated 2018)
Ends that are not written are not given here.

Experiments:
[1] = Stability of XG-102 stock solution and diluted formulations; type: physicochemical
Source text: a) Materials and Methods • i) Animals • A total of twenty (20) male db/db mice (8 weeks old) were obtained from Charles River (Germany). Upon arrival, animals were group housed (n=6-7/group) and offered regular rodent chow (Altromin standard #1324 chow; C. Petersen, Ringsted, Denmark) and water ad libitum unless otherwise stated. • The mice were housed under a 12:12 L/D cycle (lights on at 4:00 and lights off at 16:00) and in temperature and humidity controlled rooms. • ii) Groups and Randomization • On day −4, mice were randomized according to blood glucose level (fasted; blood glucose measured on Biosen S line analyzer (EKF diagnostic, Germany) to participate in one of the following drug treatment groups (n=6): • 1) Vehicle control, S.C. (physiological saline) • 2) XG-102 (SEQ ID NO: 233); 1 mg/kg; s.c. • 3) XG-102 (SEQ ID NO: 233); 10 mg/kg; s.c • All doses listed were calculated for the free-base. Drug purity: 95.28%, peptide content: 78.0%. All compounds were administered sub-cutaneously (s.c.) in a volume of 3 ml/kg. The formulation instructions for vehicle control and XG-102 (SEQ ID NO: 233) were as follows: • First, XG-102 (SEQ ID NO: 233) was dissolved in the vehicle. The formulations (concentrations of 0.33 and 3.3 mg/ml, corresponding to the doses of 1 and 10 mg/kg, respectively) were prepared according to the procedure detailed below. Concentrations were calculated and expressed taking into account test items purity and peptide content (multiplier coefficient was 1.346). • Preparation of a stock solution: the freeze-dried test compound XG-102 (SEQ ID NO: 233) is thawed for one hour minimum and prepared as a stock solution in the vehicle at 1 mM (corresponding to 3.823 mg/mL). Aliquots are prepared for each treatment day and stored at approximately −80° C. Dilutions of this stock solution to the required concentrations are performed on each treatment day; • Storage of the stock solution: at approximately −80° C.; • Storage of the diluted preparations: at room temperature for 24 hours maximum. • Prior to solubilisation, the powder was stored at −20° C. […]

[2] = test system: noise trauma (120 dB at 6 kHz); test: Treatment of noise trauma, auditory brainstem response; type: in vivo, guinea pigs; settings: 100 μM in hyaluronic acid gel on round window membrane; before or after noise trauma
Protocol: 19. […] Untreated ears served as control. Hearing threshold shifts are evaluated by auditory brainstem response measurements 20 minutes after noise trauma (temporary threshold shift, TTS) and 15 days following the trauma (permanent threshold shift, PTS).

[3] = test system: leucocytes (cd11b positive cells) in inflamed hind paw; test: Immunohistochemistry and CD11b staining on paw from CFA-induced inflammation (4 h); type: in vivo, C57/Bl6 mice; settings: 10 μg/kg i.v. one hour prior to CFA; 4 h after CFA
Protocol: FIG. 19A, FIG. 19B, and FIG. 19C: Immunohistochemistry staining on paw from CFA-induced inflammation (4 h). Upper panels represent the Hematoxylin and Eosin (H&E) staining of hindpays. From left to right: a saline-treated animal which was not treated with CFA (Complete Freund's Adjuvant), a saline-treated animal which received CFA and a XG-102-(SEQ ID NO: 233) treated animal which also received a CFA injection. After CFA treatment, muscular and epithelial layers appear to be less organized due to edema. The presence of XG-102 (SEQ ID NO:233) positive cells was detected only in animal treated with XG-102 (upper right panel). […] 19A: Magnification ×20; 19B: Magnification ×40; 19C: Magnification ×100.
FIG. 20A represents the hind paw section of a CFA treated animal stained with three different dyes. The four upper panels represent the same portion at high magnification of a distal region. Distribution of the leucocyte marker (mainly granulocytes, macrophages and monocytes) cd11b (first from left) and XG-102 (SEQ ID NO: 233, second from left) as well as the Dapi nuclear stain (3rd from left) are indicated. The upper right panel represents the merge image of cd11b and XG-102 positive stain. […]

dqsrpvqpflnIttprkprpprrrqrrkkrg (DQSRPVQPFLNLTTPRKPRPPRRRQRRKKRG; not fully specified (some residues); printed as dqsrpvqpflnIttprkprpprrrqrrkkrg) [XG-102]
stability of the stock solution ([1]; 1 mM in vehicle, approximately −80° C.): 3 months | storage of unused diluted material ([1]; 4-8° C.): up to 7 days | stability of the diluted formulations for animal dosing ([1]; room temperature): 24 h | permanent hearing loss (permanent threshold shift) [2]: protected against permanent hearing loss even if applied after exposure to excessive noise | co-localization with cd11b positive leucocytes [3]: co-localizes with a certain leucocyte population | presence in leucocytes of inflamed paw (HRP staining) [3]: presence of XG-102 in infiltrating leucocytes
